Test: 14C assay with IPTG-induced recombinant E. coli cells (14CO2 capture from [14C]-carboxyl-labeled dicamba)
Conditions: for Dicamba Decarboxylase Activity: IPTG-induced recombinant E. coli cells, [14C]-carboxyl-labeled dicamba, 14CO2 capture; for Enzymatic Detection level: dicamba decarboxylation activity of the protein of the given SEQ ID NO

B1: 77 (protein)
chain: MALIDLHAHAPHPGYYNQHPHWGPFFERHEDGDVKLRVGDWILTLGSPERKALVRAGKGPTVEEYQARWADPKVRLAGMDAAGQNAQVVSVPSHCYMYWAEKEFSVPFATKVNDTFAEYCSAAPDRLMFWAHAALNAPEQAALELRRACTELGAKGLVAGGANFGGLEFDSPELDPVWKVLCDLDLPMFIHGYNQSVTWGKKANDDRYETTAIVGMQYDETRCFWNLVCGGVLDRFPGLKVYITHGGGYVPYQLGRLAQCNGNLDVAHNKKPVLEYLKNNFYFDVELHEVPMRQALIDIIGADRVLYGSNFGGSDAVRHDLTEGLRLSDDDLQKIRWKNACKLLHLDPAKIGEPAKKQAVSA
modifications: Burkholderia xenovorans
  Dicamba Decarboxylase Activity: No
  Enzymatic Detection level: No

B2: 73 (protein, listed as Sphaerobacter thermophilus)
chain: MARIDAHAHAQPPEYLDALLASGRYESVRDAEGRIVVRERGSRFLTITPQMHHPEQRVAEMDEAGIDMQILSVTTPQVYFLQGQAAVDLARRCNDYLADIVRSYPTRFRALASVPLTADPDAAVREFVRCLDDLGMVGAIIGSNIDGRPIDDPAFDAFYAEADRRATTLFIHPMVPAGIEVMNPYALAPLVGFMFDTTLAVSRLIFSGFFERYPRVKVLVGHLGAAVPYLAGRLDIGWRSYSDCQGIPHPPTEYIRRLYLDTVSFHAPALRCALETVGPDRIVFGSDYPHVIGDVGGAIASIQQALPATTHDGVLGHTAAELFGVSA
  Dicamba Decarboxylase Activity: Low
  Enzymatic Detection level: Low

B3: 70 (protein, listed as Alicyclobacillus acidocaldarius)
chain: MAIEPNRAADVHTHFLPTEVLEFLKREPRIQVDLERRAPDKEPFLTVEGRWSFELKRMFVDFEAFASAYRQAGIGLALVSPLPQLFVYHLPAEMGAQVAEVYNDALRDVLAPHRERFRPLATLPLADPTAAARELERRMDEGFVGAIVGPGVGEALIGDEAFWPLWEVADARRAVLFLHPLLHADPRAARLMLPNLVGVPWETTLAAAHLVLSGLLDRYPGARVLLAHGGGFLPYQIGRIEQGYDVWPQVRGRLQDRPTAYLRRMFYDNVLWSDAALRCLIDVVGADRVLAGSDFPFDLSAWPPRPGADVSVLAGGSGREGRLS
  Dicamba Decarboxylase Activity: Low
  Enzymatic Detection level: Low

B4: 74 (protein, listed as Ramlibacter tataouinensis)
chain: MATVIDVHTHMFTTKWLELLKKEGGQYNIQTRPDGQQEIFRGNTPVVIPQKGHFDWKLRIQHMDQAGIDVSVVSLTCPNVYWGGEDVSVRAAREANDNVAQAQTAYPDRIRWFASLPWEYMATVIDVHTHMFTTKWLELLKKEGGQYNIQTRPDGQQEIFRGNTPVVIPQKGHFDWKLRIQHMDQAGIDVSVVSLTCPNVYWGGEDVSVRAAREANDNVAQAQTAYPDRIRWFASLPWEYPQRAVEELERSCAQGAAGVMVLANVAGRSLTDPLFAPVWAEIDRRALPVLVHPTDPPGVDLMDMTKFDLSWSVGFMFDTTLAITRMIFEGFFDRYPNLRIIASHGGGTLPYLVGRFEKGDEVELASRRQMKRKPTDYLRHIHYDCITYNLGALQYLISVVGAGQVMFGTDWPHWVHDTRGAFANTAQLPQEQTRAVRGANAQRLFKL
  Dicamba Decarboxylase Activity: Low
  Enzymatic Detection level: Low

B5: 69 (protein, listed as Microbacterium testaceum)
chain: MATSTEGQDVTDVHAHLLMPGLHAEVERRVPDEVQAAADLELRRNGLASLQASGRMIGERFPRLTDVRARLAAMDEQGVDRQWVSPSPNHFYPWANEGLATWASGEANRLIAEHVALAPDRLVGLGVVPLQHPHLVVDALDDAVLGRGLAGVEISSFAGDVELSDERLESFWARAAELRAVVFLHPFGCSLDERLDRFYLSNTVGQPTENAVALSHLIFSGVLDRHPGLRLIAAHGGGYLPTAIGRSDRAWRVRPEARGCAHAPSTYLSKLWFDTVVHDERALRWLVEAAGADRVLLGSDFPFDMGLDDPVAFVRGAGLQDAEVSGILGGNAAELLRTRVHA
  Dicamba Decarboxylase Activity: No
  Enzymatic Detection level: No

B6: 71 (protein, listed as Burkholderia dolosa)
chain: MARAGHRAARTRQSRPGDRTMTCSCCMSAGRRRVLGAFAALAGAPKGPRAASAAQPAAASKPTRGDATARNRHSRALLPGKASASWSATKASGSGGAFAWDDTTFTFRTPAGGLGPLPMKFIDVDARLRDMDASGVDVQALSLSVPMAYWGDRPFNAKLARAWNTAASRVHVRAPDRFVVLATLPMLDATDAIDELERASELPGVRGVYMGTNIDNRDLDDPRFAPVFARIEQLGLPVFLHPQQTVGGARLGDFYLSNLLGNPFDTAIAASHLILGGVLDRHPALHFTLPHAGGALPILVGRLDAGWTVRAETRRLAHQPSGYLRRFSYDTVSHSGPVLNFLIENVGIDRLVLGSDYCFDMGYEQPVRFLDRLDLTPDERAMVIGGNAGRLLRI
  Dicamba Decarboxylase Activity: Low
  Enzymatic Detection level: Low

B7: 79 (protein)
chain: MATTTTPSTLIATLESHLTPTLAFTSPTTSPTQPALHLIPPTTLTKLRNLGPGRVKDMHMLGHSRQIISHIPVAAPPQICSRFNDAIHAATMTNTAKFSVLAVLPTDGMEAAKELARCVSKYRFVGGVIGLNRGLRINGEGWEELWGLAERLRIPIMFREMWPLAFEIVDYQHHLPYSALGPILTQLHTSHTSSPLPLVRLYLSSVFDHYPSLRLVLAHPGSLPSLVPRIESLINSIPATDKPKRSFLDVWQHNIYLTTADAQDMSSLRALLEQIPVDRVLYASNYPFEERGNELMNELRESEFLTNIEWERVAWVNAETLFNLKEAGTKEARQLTTIPSSRS
modifications: Pyrenophora teres
  Dicamba Decarboxylase Activity: High
  Enzymatic Detection level: High

B8: 72 (protein)
chain: MADCPCCVSPKRRRLLGSVSAIAAGMMAGLPALAAQPSTAAAGTGKPLSIDIHAHYYSESFLGLLGGEGKQFGGHFFRNDDSFTFQTPAGGLGPLPMKFIDVEQRVRDMDNSGVDVQAISLSVPMVYWADRTLNAKLARAWNTAASDVHRKHPTRFVVLATLPMLNANDAIDELEFAAGLPGVRGIYMGTNINNRDLDDPLFSPIFKRIEQLNLPIFLHPQQTVGGARLADFYLSNLLGNPFDTAIAASHLILGGVLDKYPALHFSLPHAGGALPILVGRIDAGWSMRSETKRVAQKPSSYLRRFSYDTISHSGPTLDFLIRNIGADRLVLGSDYCFDMGYEQPVRFLDRLALPDDQKRMVVGGNAARLLNL
modifications: Cupriavidus necator
  Dicamba Decarboxylase Activity: Low
  Enzymatic Detection level: Low

B9: 78 (protein, listed as Marinobacter adhaerens)
chain: MALIDLHAHAPHPDYYDQHPHWGPAFELQSDGDIKLRVGHWVLSLGAPERKQALREAHARGETLDVQEYMAKWRDPEHRLASMDAAGQNAQVLSVPSHCYMYWAEPEFGVPFAKKVNDSLAEYCSAAPDRLMFWAHAPLNVPKEAAKEIRRACTELGAKGLVAGGSNFGGLEFDSPEMDPVWEALCDLDLPMFVHGYNQSVTWGEEANTDRYETTAIVGMNYDESKCFWYMINGGVFDRFPNLKVYITHGGGFVPYQLGRMAQTNPNLDTYHNKKPFLEYLKNFYFDVELHEVPMRQAMVEVIGADRVLYGSNFGGSDAVRHDLTDDLKLSQEDLDKIRWKNACDLLHLDPNKLGKVRG
  Dicamba Decarboxylase Activity: Low
  Enzymatic Detection level: Low

B10: 64 (protein, listed as Achromobacter piechaudii)
chain: MAIQKIDMHAHFFPPITRQEAAALDPVNAPWLRPDADGATGQIMAGEREFRPVDATLWDPALRIEQMDRHGVDVQILCATPIMFGYTYPARPAADWAARMNDLALEHCAYAPSRLKALAQVPLQDLELACQEASRARAAGHLGVQIGNHVGPRDLDDETLVQFLIHCANNDIPVLVHPWDMMTDGRMKKWMLPWLVSMPAETQLGILSLILSGAFERIPRSLKLCFAHGGGSFAYLLGRVDNAWRHRDIIRQDCPQLPSSYTDRFYTDSAVFDPRSLRLLIDVMGEDRVLLGSDYPYPLGEQEVGRLVAHAELVPEVQQKILFRNTMTFFGLQPGLQPGLQS
  Dicamba Decarboxylase Activity: Low
  Enzymatic Detection level: Low

B11: 5 (protein, listed as Staphylococcus aureus)
chain: MAQNNMEANQMKSITFEEHYVIEDIQKETMNAISADPKGVPMKVMLEGLEKKTGFTNADELSHHDERIQFMNNQDVQIQVLSYGNGSPSNLVGQKAIELCQKANDQLANYIAQYPNRFVGFATLPINEPEAAAREFERCINDLGFKGALIMGRAQDGFLDQDKYDIIFKTAENLGVPIYLHPAPVNSDIYQSYYKGNYPEVTAATFACFGYGWHIDVGIHAIHLVLSGIFDRYPKLNMIIGHWGEFIPFFLERMDEALFAEHLNHPVSYYFKNNFYITPSGMLTKPQFDLVKKEAGIDRILYAADYPYIEPEKLGVFLDELGLTDEEKEKISYTNGAKLLGLSSNN
  Dicamba Decarboxylase Activity: High
  Enzymatic Detection level: High

B12: 68 (protein, listed as Hoeflea phototrophica)
chain: MAIIDAHTHTLCPAVNEKVAGTIKPDSVPYQRDMSPESKEQDHTQFPELKIMFNQVERRLADMARMGIDRQVIAPAPGQQHYWAEPKLLAEISALQNDHVAELVARAPDRFAGIGTLPMTDPDAAVAEITRATRELGLRVFQIDSRVMERELSDASLDPIYAALEAAGAGLMIHPLGFSNGERLTPFFMVNSVAQPLEELLAFNHLVFGGVLDRFPKLKVYIAHGGGFAPFYIGRFDHAWKVRPEVNRLTPSAPSTYLRRIYFDTCVYRTDHIETLVRTVGADRVMLGSDYPFDMGDTDPLGLLNACQGLSDDEKATISSKVAIDFFGLET
  Dicamba Decarboxylase Activity: No
  Enzymatic Detection level: No

B13: 75 (protein, listed as Ectocarpus siliculosus)
chain: MAKIDSYTHFACPAFMDHLEAESGHPMVFRGLFSSIPELSDIDLRIRYMDEHGIDVHCLVPLPWLECEPGLHADEGKALEACRIANDEMARVVARFPDRLIGVALIPTTTEQAMIQETTRAVKELGMAGVALFVGPTAKPPDMACFEGLYRTCEELGAVVWMHPCRPQSYADYDSYKGEGSKHQIWNTFGWIYDTSVAMVHIALAGVFRRYPGLKVVTHHHGAMVPFFTARFDTQRRNFQEVEGDDLLEDLRLFYCDTATFGESAANIQQAIDFFGKSQVLFGTDTPMDMGTRGMFTRTTIASVEALGAAPEDKESFYAGNVLDMLGERFAGISGARGAVAARPKGDSTRIAASL
  Dicamba Decarboxylase Activity: Low
  Enzymatic Detection level: Low

B14: 76 (protein, listed as Polymorphum gilvum)
chain: MAKKIDIFNHIWPEPFFKALIAHIGEMTDITMRSGAVPMMTNLDRRFEVMDMFGPDYMQVLSLASPPLEKLADPAKALELSRIGSDSLAELCQRYPERFPAFIGTAPLSNPAAVVGECRRAIEDLGAAGMQIFTNVAGKPLDLAEFEPFFEYMASAGKPVWLHPARGEAFADYQTEKRSEYEIWWTFGWPYETSAAMARLVFSRMFDKYPGLKVITHHAGGMVPFFEGRVGPGWDQMGARTTDRDLAAVRKALKRPHLDYFKEFYADTASFGSRKAIEHAIEFFGEDRVLFASDAPFDPEGGPMYIRETMRCIDSLDLTDAQRRKIYHGNATALLGLSL
  Dicamba Decarboxylase Activity: No
  Enzymatic Detection level: No

Reference: patent publication US20140287419A1, “Compositions Having Dicamba Decarboxylase Activity and Methods of Use” (priority 2013, published 2014)
